Experimental data as given in paper PMC4404995.

Substrate: CC(=O)c1ccc(O[C@@H]2O[C@H](CO)[C@@H](O)[C@H](O)[C@H]2O)cc1
Test: LC-MS assay of aglycon release
Format: biochemical, Picea glauca
Conditions: 0.01–2.0 mM picein, 20 mM MES-KOH, pH 6, 37°C, 1 h

B1: PgβGLU-1 (Picea glauca) (protein)
chain: TSPDLGRSSFPKGFKFGAGSSAYQDEGAALEGGKGPSIWDTFSHIQGKIEDGKNGDVAVDQYHRYKEDVRHLKYMGMDLYRFSISWSRIFPQGSPRHGGVNEEGITYYNNLINELLKNGMEPFVTLYHWDMPQALEDEYGGFRSQRVVEDIGTFAEECFRAFGDRVKYWTTINEPLTFTLYGYDLGIHAPGRCSPGFGNCTAGNSATEPYIVTHNMLLAHSAAVKTYRTKYQGKQKGSIGISLVVNWMVPYSNSLLDQEATQRAIDFRIGWFLDPLTSGKYPDSMRSLVGARLPRFSSEEAKDLKGSFDFLGYNYYQTYFTVNNPTPQNSLNTDYVLDAQANISQQVNGVYVGSSEGVSSFRSYPAGLREVINYTKHRYSNPPIYITETGYGDFDNGTTPLEEALQDSGRVEYYSKHLSSLLEAIREGADVRGYVVWSFLDGFEWASGYDYRFGLYYVDYNDNLKRYPRESANWFRNVLKS
- Km: 1280 ± 530 µM
